From the Immune Epitope Database (IEDB) come the findings set out here.

For assay [1], the target named is HLA-B*15:01. Briefly: IEDB peptide-MHC binding, purified MHC/competitive/radioactivity; filed as Kd, often an IC50 or EC50 that approximates it; ≥ and ≤ were set here for values at or beyond the usual limits of such assays.
A further assay has as its target HLA-B*40:01. The description is as above.
Another assay addresses HLA-A*11:01. The assay is described as above. The following applies: source organism: Dengue virus 4 Philippines/H241/1956.
The next assay deals with HLA-A*30:01. The description is as above.
Another assay deals with HLA-A*03:01. The assay is described as above. The following applies: source organism: Dengue virus 4 Philippines/H241/1956.
Another assay addresses HLA-A*01:01. Described as above. The following applies: source organism: Dengue virus 3 Martinique/1243/1999.
The target in another assay is HLA-A*24:02. The description is as above.
The target of another assay is HLA-B*58:01. Nature of the assay: IEDB peptide-MHC binding, purified MHC/direct/fluorescence; filed as Kd, often an IC50 or EC50 that approximates it; ≥ and ≤ were set here for values at or beyond the usual limits of such assays.
In a further assay the target is HLA-B*57:01. Described as above.
For another assay, the target named is HLA-A*23:01. Nature of the assay: IEDB peptide-MHC binding, purified MHC/competitive/radioactivity; filed as Kd, often an IC50 or EC50 that approximates it; ≥ and ≤ were set here for values at or beyond the usual limits of such assays.
For assay [2], the target named is HLA-B*15:01. Briefly: IEDB peptide-MHC binding, purified MHC/competitive/fluorescence; filed as Kd, often an IC50 or EC50 that approximates it; ≥ and ≤ were set here for values at or beyond the usual limits of such assays. The following applies: source organism: West Nile virus.
A further assay addresses HLA-B*44:03. Nature of the assay: IEDB peptide-MHC binding, purified MHC/competitive/radioactivity; filed as Kd, often an IC50 or EC50 that approximates it; ≥ and ≤ were set here for values at or beyond the usual limits of such assays.
For another assay, the target named is HLA-B*46:01. Nature of the assay: IEDB peptide-MHC binding, purified MHC/competitive/fluorescence; filed as Kd, often an IC50 or EC50 that approximates it; ≥ and ≤ were set here for values at or beyond the usual limits of such assays. The settings on record: source organism: Francisella tularensis subsp. tularensis FSC198.
A further assay has as its target HLA-A*33:01. Briefly: IEDB peptide-MHC binding, purified MHC/competitive/radioactivity; filed as Kd, often an IC50 or EC50 that approximates it; ≥ and ≤ were set here for values at or beyond the usual limits of such assays. The following applies: source organism: SARS coronavirus Tor2.
The target of the next assay is HLA-A*68:01. The assay is described as above. The following applies: source organism: SARS coronavirus Tor2.
The target in the next assay is HLA-A*31:01. Nature of the assay: IEDB peptide-MHC binding, purified MHC/direct/fluorescence; filed as Kd, often an IC50 or EC50 that approximates it; ≥ and ≤ were set here for values at or beyond the usual limits of such assays. The settings on record: source organism: SARS-CoV1.
For a further assay, the target named is HLA-B*44:02. Briefly: IEDB peptide-MHC binding, purified MHC/competitive/radioactivity; filed as Kd, often an IC50 or EC50 that approximates it; ≥ and ≤ were set here for values at or beyond the usual limits of such assays.
A further assay concerns the target HLA-B*53:01. Described as above. The following applies: source organism: Dengue virus 4 Philippines/H241/1956.
The target of another assay is HLA-A*26:01. The description is as above. The following applies: source organism: Dengue virus 2 Jamaica/1409/1983.
A further assay deals with HLA-A*30:02. Described as above.
The mark [3] stands for this setting: source organism: Vaccinia virus WR.
[4] abbreviates: source organism: Vaccinia virus Copenhagen.
Where [5] appears, read: source organism: Dengue virus 4 Philippines/H241/1956.
Setting [6] is: source organism: Dengue virus 2 Jamaica/1409/1983.
Setting [7] is: source organism: Yersinia pestis Antiqua.
The mark [8] stands for this setting: source organism: Giardia lamblia ATCC 50803.
The mark [9] stands for this setting: source organism: Dengue virus 1 Singapore/S275/1990.

As a reminder, the Kd is the equilibrium constant for the complex coming apart. As for LIIKLLLPG, the Kd in the assay with HLA-B*15:01 [1] (setting [3]) came to 1.12 µM.

As to LGFDVVAYF, the Kd with HLA-B*15:01 [1] (setting [4]) was determined as 0.0673 µM.

On to FEEYKRSGI, for which the dissociation constant Kd with HLA-B*40:01 (setting [5]) is 1.29 µM.

Turning to RTEAKSALK, the results for the Kd with HLA-A*11:01, with HLA-A*30:01 (setting [5]) and in the assay with HLA-A*03:01 were 0.177 µM, 0.476 µM and 0.0876 µM, respectively.

As to LTDGPERVIL, the Kd with HLA-A*01:01 turned out to be 11.8 µM.

As for WENNIKLTV, the Kd with HLA-B*40:01 (source organism: Dengue virus 3 Martinique/1243/1999) turned out to be 0.12 µM.

As to LYAVATTFV, the equilibrium dissociation constant (Kd) with HLA-A*24:02 (setting [6]) was 0.0664 µM.

With KCLNIMLGK, the Kd with HLA-A*30:01 (source organism: Mammarenavirus brazilense) stood at 0.0249 µM.

NVRYVFLYK: in the assay with HLA-A*30:01 (setting [3]), the Kd is 0.00989 µM.

On to ASSALDAHF, for which the Kd in the assay with HLA-B*58:01 (setting [7]) is 0.0044 µM; in the assay with HLA-B*57:01 (setting [7]) it was 0.396 µM.

On to LLLMRTTWAF, for which the Kd with HLA-A*24:02 (setting [5]) came to 0.292 µM; in the assay with HLA-B*15:01 [1] (setting [5]), 0.00124 µM; with HLA-A*23:01 (setting [5]), 0.694 µM.

As to KYKQSNTNK, the Kd with HLA-A*30:01 (setting [3]) was determined as 0.103 µM.

Regarding FLCDDTITY, the dissociation constant Kd with HLA-B*15:01 [2] was found to be 0.298 µM.

In the case of LDPIPYDPKF, in the assay with HLA-A*24:02 (setting [6]), the Kd came to 2.42 µM.

With HVKAFYKFI, the equilibrium dissociation constant (Kd) in the assay with HLA-A*30:01 (setting [3]) was 0.000346 µM.

Turning to WYAQIQPHWI, in the assay with HLA-A*24:02 (setting [6]), the Kd came out at 0.0493 µM.

For SEIPNLDII, the Kd in the assay with HLA-B*44:03 (setting [6]) came out at 0.0604 µM; with HLA-B*40:01 (setting [6]), 0.112 µM.

As to KVRKIISKI, the Kd with HLA-A*30:01 (setting [3]) was 0.0272 µM.

With LAIPATEFF, the Kd with HLA-B*15:01 [1] (setting [3]) worked out at 0.00416 µM.

On to GTIMVSEHF, for which the Kd with HLA-B*15:01 [1] (setting [3]) was 0.0574 µM.

As for LAPFNFLVF, the Kd with HLA-B*15:01 [1] (setting [3]) was 0.135 µM.

EIKTGISSF: in the assay with HLA-B*15:01 [1] (setting [3]), the Kd came out at 0.0899 µM.

For the sequence EQKAYVPAM, the Kd with HLA-B*15:01 [1] (setting [3]) was determined as 0.000773 µM.

Regarding IWYMWLGARF, the dissociation constant Kd was 0.00614 µM with HLA-A*24:02 (setting [6]) and 0.00827 µM in the assay with HLA-A*23:01 (setting [6]).

In the assay with HLA-B*46:01, YIGGTTQAF gave a dissociation constant (Kd) of 4.42 µM.

As for LVRSTVSSI, the equilibrium dissociation constant (Kd) with HLA-B*15:01 [1] (setting [4]) is 0.527 µM.

On to KVIQPRVEK, for which the values for the dissociation constant (Kd) in the assay with HLA-A*33:01, with HLA-A*68:01 and with HLA-A*31:01 were 7.34 µM, 0.89 µM and 0.427 µM, respectively.

With HEWMTTEDM, the Kd in the assay with HLA-B*44:03 (setting [6]) stood at 1.53 µM; with HLA-B*40:01 (setting [6]) it was 0.381 µM; with HLA-B*44:02 (setting [6]), 1.96 µM.

For MTDKTPVHSW, the Kd with HLA-B*53:01 worked out at 0.891 µM; in the assay with HLA-B*44:02 (setting [5]), 1.41 µM.

Turning to SARGLCNTW, the Kd with HLA-B*58:01 (setting [8]) was determined as 0.0565 µM; with HLA-B*57:01 (setting [8]) it was 0.112 µM.

As for AEHTGREIV, the Kd with HLA-B*40:01 (setting [6]) worked out at 0.0624 µM.

Regarding VEETNMITLL, the Kd with HLA-B*40:01 (source organism: Dengue virus 4 Dominica/814669/1981) was 0.025 µM.

SAKNSWLNL: the Kd with HLA-A*30:01 (setting [3]) worked out at 0.000574 µM.

Consider RKKARSTPFN, for which the Kd in the assay with HLA-A*30:01 (setting [6]) came to 3.82 µM.

As to FPQSNSPIE, in the assay with HLA-B*53:01, the Kd was 0.243 µM.

For AENHHHATML, the dissociation constant Kd is 0.189 µM with HLA-B*44:03 (setting [9]), 0.0399 µM with HLA-B*40:01 (setting [9]) and 0.0557 µM with HLA-B*44:02 (setting [9]).

For GVPLLAIGCY, the Kd with HLA-A*26:01 worked out at 0.128 µM; with HLA-A*30:02 (setting [6]) it was 3.35 µM.

As for SYAQMWSLMY, the equilibrium dissociation constant (Kd) in the assay with HLA-A*30:02 (source organism: Dengue virus 2 Peru/IQT2913/1996) was at least 69.7 µM.

For the sequence RASGSYISG, the dissociation constant Kd with HLA-A*30:01 (setting [3]) turned out to be 0.589 µM.

As for RDKRSVALA, the dissociation constant (Kd) with HLA-A*30:01 (source organism: Dengue virus 1 Brazil/97-11/1997) was determined as 1.99 µM.
